B1: SLC22A11, Q9NSA0 (peptide)
chain: EAVTVESTSL
B2: TYRO3, Q06418 (peptide)
chain: QQGLLPHSSC

target: T1, ARHGEF11, O15085; test: holdup assay; parameters: key: below the threshold = too weak to quantify, mostly under pKd 3.1 to 4; conditions: plain residues with an end cap or a label only (N-terminal biotin on a linker: ado-ado)
T1 sequence (O15085 42-136, limits assumed, looked up): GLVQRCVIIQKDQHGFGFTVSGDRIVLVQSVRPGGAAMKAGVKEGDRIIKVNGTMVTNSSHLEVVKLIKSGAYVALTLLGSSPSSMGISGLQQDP

Binder	pKd
B1	4.95
B2	3.55

target: T2, RADIL, Q96JH8; test: holdup assay; parameters: key: below the threshold = too weak to quantify, mostly under pKd 3.1 to 4; conditions: plain residues with an end cap or a label only (N-terminal biotin on a linker: ado-ado)
T2 sequence (Q96JH8 971-1071, limits assumed, looked up): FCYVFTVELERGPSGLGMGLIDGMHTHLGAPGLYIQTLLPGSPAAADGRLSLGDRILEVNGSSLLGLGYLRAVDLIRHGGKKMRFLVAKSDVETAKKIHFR

Binder	pKd
B1	below the threshold
B2	below the threshold

target: Inadl_2, Q8NI35; test: holdup assay; parameters: key: below the threshold = too weak to quantify, mostly under pKd 3.1 to 4; conditions: plain residues with an end cap or a label only (N-terminal biotin on a linker: ado-ado)
Sequence (Q8NI35 238-335): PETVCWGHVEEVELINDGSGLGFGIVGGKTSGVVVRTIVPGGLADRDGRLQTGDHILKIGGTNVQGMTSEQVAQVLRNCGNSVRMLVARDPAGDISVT

Binder	pKd
B1	below the threshold
B2	below the threshold

target: PARD3_3, Q8TEW0; test: holdup assay; parameters: key: below the threshold = too weak to quantify, mostly under pKd 3.1 to 4; conditions: plain residues with an end cap or a label only (N-terminal biotin on a linker: ado-ado)
Sequence (Q8TEW0 582-685): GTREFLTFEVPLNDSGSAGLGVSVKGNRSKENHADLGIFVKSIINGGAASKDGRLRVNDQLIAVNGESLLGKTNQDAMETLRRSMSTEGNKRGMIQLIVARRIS

Binder	pKd
B1	below the threshold
B2	below the threshold

target: T3, DLG3_3, Q92796; test: holdup assay; parameters: key: below the threshold = too weak to quantify, mostly under pKd 3.1 to 4; conditions: plain residues with an end cap or a label only (N-terminal biotin on a linker: ado-ado)
T3 sequence (Q92796 374-475, limits assumed, looked up): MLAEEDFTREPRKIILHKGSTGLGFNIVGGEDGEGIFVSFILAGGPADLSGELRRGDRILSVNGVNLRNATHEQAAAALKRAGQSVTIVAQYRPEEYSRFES

Binder	pKd
B1	3.6
B2	below the threshold

target: T4, LNX2_2, Q8N448; test: holdup assay; parameters: key: below the threshold = too weak to quantify, mostly under pKd 3.1 to 4; conditions: plain residues with an end cap or a label only (N-terminal biotin on a linker: ado-ado)
T4 sequence (Q8N448 334-432, limits assumed, looked up): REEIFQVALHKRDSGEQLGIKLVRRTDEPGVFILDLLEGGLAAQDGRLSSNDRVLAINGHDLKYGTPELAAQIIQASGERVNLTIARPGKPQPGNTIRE

Binder	pKd
B1	3.67
B2	below the threshold

target: MAGI2_2, Q86UL8; test: holdup assay; parameters: key: below the threshold = too weak to quantify, mostly under pKd 3.1 to 4; conditions: plain residues with an end cap or a label only (N-terminal biotin on a linker: ado-ado)
Sequence (Q86UL8 410-522): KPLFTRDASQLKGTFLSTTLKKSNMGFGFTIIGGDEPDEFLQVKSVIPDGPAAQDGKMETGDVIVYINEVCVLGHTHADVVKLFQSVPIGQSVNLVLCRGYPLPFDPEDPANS

Binder	pKd
B1	below the threshold
B2	below the threshold

target: NOS1, P29475; test: holdup assay; parameters: key: below the threshold = too weak to quantify, mostly under pKd 3.1 to 4; conditions: plain residues with an end cap or a label only (N-terminal biotin on a linker: ado-ado)
Sequence (P29475 9-101): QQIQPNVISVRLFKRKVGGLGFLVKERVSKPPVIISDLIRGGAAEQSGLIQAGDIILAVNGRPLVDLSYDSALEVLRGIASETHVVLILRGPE

Binder	pKd
B1	3.5
B2	below the threshold

target: IL16_3, Q14005; test: holdup assay; parameters: key: below the threshold = too weak to quantify, mostly under pKd 3.1 to 4; conditions: plain residues with an end cap or a label only (N-terminal biotin on a linker: ado-ado)
Sequence (Q14005 1107-1207): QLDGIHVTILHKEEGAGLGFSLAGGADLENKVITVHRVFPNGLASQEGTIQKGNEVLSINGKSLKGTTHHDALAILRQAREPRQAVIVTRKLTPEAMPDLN

Binder	pKd
B1	below the threshold
B2	below the threshold

target: FRMPD4, Q14CM0; test: holdup assay; parameters: key: below the threshold = too weak to quantify, mostly under pKd 3.1 to 4; conditions: plain residues with an end cap or a label only (N-terminal biotin on a linker: ado-ado)
Sequence (Q14CM0 67-160): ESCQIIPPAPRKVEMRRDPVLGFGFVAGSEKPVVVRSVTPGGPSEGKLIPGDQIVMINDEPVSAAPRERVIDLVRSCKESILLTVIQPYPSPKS

Binder	pKd
B1	4.23
B2	below the threshold

target: GRIP2_5, Q9C0E4; test: holdup assay; parameters: key: below the threshold = too weak to quantify, mostly under pKd 3.1 to 4; conditions: plain residues with an end cap or a label only (N-terminal biotin on a linker: ado-ado)
Sequence (Q9C0E4 544-642): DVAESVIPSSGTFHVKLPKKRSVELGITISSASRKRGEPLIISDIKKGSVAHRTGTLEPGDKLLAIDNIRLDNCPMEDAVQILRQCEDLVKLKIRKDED

Binder	pKd
B1	below the threshold
B2	below the threshold

target: T5, NHERF3_1, Q5T2W1; test: holdup assay; parameters: key: below the threshold = too weak to quantify, mostly under pKd 3.1 to 4; conditions: plain residues with an end cap or a label only (N-terminal biotin on a linker: ado-ado)
T5 sequence (Q5T2W1 4-100, limits assumed, looked up): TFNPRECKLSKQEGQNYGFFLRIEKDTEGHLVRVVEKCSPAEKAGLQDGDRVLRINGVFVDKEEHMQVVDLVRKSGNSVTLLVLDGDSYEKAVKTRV

Binder	pKd
B1	6.1
B2	below the threshold

target: MAST2, Q6P0Q8; test: holdup assay; parameters: key: below the threshold = too weak to quantify, mostly under pKd 3.1 to 4; conditions: plain residues with an end cap or a label only (N-terminal biotin on a linker: ado-ado)
Sequence (Q6P0Q8 1099-1202): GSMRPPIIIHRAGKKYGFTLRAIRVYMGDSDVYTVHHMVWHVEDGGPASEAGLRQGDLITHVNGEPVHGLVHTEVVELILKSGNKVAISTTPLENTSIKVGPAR

Binder	pKd
B1	5.9
B2	3.83

target: T6, GRIP1_4, Q9Y3R0; test: holdup assay; parameters: key: below the threshold = too weak to quantify, mostly under pKd 3.1 to 4; conditions: plain residues with an end cap or a label only (N-terminal biotin on a linker: ado-ado)
T6 sequence (Q9Y3R0 467-571, limits assumed, looked up): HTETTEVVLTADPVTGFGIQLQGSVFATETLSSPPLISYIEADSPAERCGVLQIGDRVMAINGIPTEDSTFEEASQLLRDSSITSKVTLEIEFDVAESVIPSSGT

Binder	pKd
B1	below the threshold
B2	below the threshold

target: T7, LNX2_3, Q8N448; test: holdup assay; parameters: key: below the threshold = too weak to quantify, mostly under pKd 3.1 to 4; conditions: plain residues with an end cap or a label only (N-terminal biotin on a linker: ado-ado)
T7 sequence (Q8N448 463-564, limits assumed, looked up): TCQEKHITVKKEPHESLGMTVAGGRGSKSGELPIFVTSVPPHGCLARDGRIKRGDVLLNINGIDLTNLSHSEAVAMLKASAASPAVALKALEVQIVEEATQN

Binder	pKd
B1	below the threshold
B2	below the threshold

target: T8, TIAM2, Q8IVF5; test: holdup assay; parameters: key: below the threshold = too weak to quantify, mostly under pKd 3.1 to 4; conditions: plain residues with an end cap or a label only (N-terminal biotin on a linker: ado-ado)
T8 sequence (Q8IVF5 885-986, limits assumed, looked up): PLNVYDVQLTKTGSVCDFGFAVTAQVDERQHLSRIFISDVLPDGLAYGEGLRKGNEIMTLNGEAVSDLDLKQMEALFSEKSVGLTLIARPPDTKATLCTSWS

Binder	pKd
B1	below the threshold
B2	below the threshold

target: LAP2, Q96RT1; test: holdup assay; parameters: key: below the threshold = too weak to quantify, mostly under pKd 3.1 to 4; conditions: plain residues with an end cap or a label only (N-terminal biotin on a linker: ado-ado)
Sequence (Q96RT1 other isoform, or with tags, fused parts or gaps): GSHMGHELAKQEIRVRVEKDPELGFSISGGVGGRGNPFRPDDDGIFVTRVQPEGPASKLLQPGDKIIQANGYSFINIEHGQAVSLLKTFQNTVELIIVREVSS

Binder	pKd
B1	below the threshold
B2	below the threshold

target: DLG1_2, Q12959; test: holdup assay; parameters: key: below the threshold = too weak to quantify, mostly under pKd 3.1 to 4; conditions: plain residues with an end cap or a label only (N-terminal biotin on a linker: ado-ado)
Sequence (Q12959 314-412): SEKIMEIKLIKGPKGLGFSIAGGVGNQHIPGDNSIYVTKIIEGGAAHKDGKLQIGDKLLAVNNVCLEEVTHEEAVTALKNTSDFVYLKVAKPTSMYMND

Binder	pKd
B1	below the threshold
B2	below the threshold

target: T9, MPP2, Q14168; test: holdup assay; parameters: key: below the threshold = too weak to quantify, mostly under pKd 3.1 to 4; conditions: plain residues with an end cap or a label only (N-terminal biotin on a linker: ado-ado)
T9 sequence (Q14168 180-250, limits assumed, looked up): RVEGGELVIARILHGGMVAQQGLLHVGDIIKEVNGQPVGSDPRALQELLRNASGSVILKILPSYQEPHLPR

Binder	pKd
B1	below the threshold
B2	below the threshold

target: T10, LIN7B, Q9HAP6; test: holdup assay; parameters: key: below the threshold = too weak to quantify, mostly under pKd 3.1 to 4; conditions: plain residues with an end cap or a label only (N-terminal biotin on a linker: ado-ado)
T10 sequence (Q9HAP6 88-185, limits assumed, looked up): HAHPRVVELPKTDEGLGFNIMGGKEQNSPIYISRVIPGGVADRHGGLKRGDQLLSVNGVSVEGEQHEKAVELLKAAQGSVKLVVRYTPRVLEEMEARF

Binder	pKd
B1	below the threshold
B2	below the threshold

target: T11, GRIP1_5, Q9Y3R0; test: holdup assay; parameters: key: below the threshold = too weak to quantify, mostly under pKd 3.1 to 4; conditions: plain residues with an end cap or a label only (N-terminal biotin on a linker: ado-ado)
T11 sequence (Q9Y3R0 568-668, limits assumed, looked up): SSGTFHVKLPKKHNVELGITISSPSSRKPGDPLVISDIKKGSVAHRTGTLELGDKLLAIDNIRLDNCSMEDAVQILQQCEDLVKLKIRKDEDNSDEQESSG

Binder	pKd
B1	below the threshold
B2	below the threshold

target: GIPC2, Q8TF65; test: holdup assay; parameters: key: below the threshold = too weak to quantify, mostly under pKd 3.1 to 4; conditions: plain residues with an end cap or a label only (N-terminal biotin on a linker: ado-ado)
Sequence (Q8TF65 112-203): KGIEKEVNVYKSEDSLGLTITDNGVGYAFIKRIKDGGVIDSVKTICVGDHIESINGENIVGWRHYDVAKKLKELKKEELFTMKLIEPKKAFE

Binder	pKd
B1	below the threshold
B2	3.53

target: T12, DVL3, Q92997; test: holdup assay; parameters: key: below the threshold = too weak to quantify, mostly under pKd 3.1 to 4; conditions: plain residues with an end cap or a label only (N-terminal biotin on a linker: ado-ado)
T12 sequence (Q92997 244-331, limits assumed, looked up): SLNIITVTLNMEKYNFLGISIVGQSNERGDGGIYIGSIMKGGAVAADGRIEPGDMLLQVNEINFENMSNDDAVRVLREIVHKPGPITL

Binder	pKd
B1	below the threshold
B2	below the threshold

target: TJP2_1, Q9UDY2; test: holdup assay; parameters: key: below the threshold = too weak to quantify, mostly under pKd 3.1 to 4; conditions: plain residues with an end cap or a label only (N-terminal biotin on a linker: ado-ado)
Sequence (Q9UDY2 24-128): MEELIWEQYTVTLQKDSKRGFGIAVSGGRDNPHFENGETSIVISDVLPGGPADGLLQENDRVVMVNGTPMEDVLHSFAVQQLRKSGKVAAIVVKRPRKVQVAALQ

Binder	pKd
B1	below the threshold
B2	below the threshold

target: IL16_4, Q14005; test: holdup assay; parameters: key: below the threshold = too weak to quantify, mostly under pKd 3.1 to 4; conditions: plain residues with an end cap or a label only (N-terminal biotin on a linker: ado-ado)
Sequence (Q14005 1229-1329): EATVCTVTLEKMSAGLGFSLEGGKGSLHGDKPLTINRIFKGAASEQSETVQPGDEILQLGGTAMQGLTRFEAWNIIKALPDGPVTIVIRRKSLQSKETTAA

Binder	pKd
B1	below the threshold
B2	below the threshold

target: SNX27, Q96L92; test: holdup assay; parameters: key: below the threshold = too weak to quantify, mostly under pKd 3.1 to 4; conditions: plain residues with an end cap or a label only (N-terminal biotin on a linker: ado-ado)

Binder	pKd
B1	5.41
B2	below the threshold
